# Experimental data reported in US20230122364A1.
# Target: prefusion conformation-stabilized SARS-CoV-2 spike ectodomain (S2Pecto) protein (SARS-CoV-2) (UniProt P0DTC2)
# Test: ELISA on coated S2Pecto
substance,measurement,value
rCR3022 (recombinant form of the cross-reactive SARS-CoV SRBD mAb CR3022) (antibody),EC50,0.0102 µg/mL
